From patent publication US20160297884A1 (Pfizer, published 2016)

T1: Human BCMA (human, UniProt Q02223 1-54, limits assumed)
T1 construct: Soluble analyte in SPR; construct not described; also called huBCMA; B-cell maturation antigen
T1 sequence (looked up): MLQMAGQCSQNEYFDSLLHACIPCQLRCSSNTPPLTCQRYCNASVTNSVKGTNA

B1: L1.GDF/L3.KW/H3.AL (antibody, V domains shown)
VH: EVQLLESGGGLVQPGGSLRLSCAASGFTFGSYAMTWVRQAPGKGLEWVSAISGSGGNTFYADSVKGRFTISRDNSKNTLYLQMNSLRAEDTAVYYCARVSPIAALMDYWGQGTLVTVSS
VL: EIVLTQSPGTLSLSPGERATLSCRASQSVGDFYLAWYQQKPGQAPRLLIYGASSRATGIPDRFSGSGSGTDFTLTISRLEPEDFAVYYCKHYGWPPSFTFGQGTKVEIK
notes: IgG
B2: L3.PY/L1.PS/H3.AE (antibody, V domains shown)
VH: EVQLLESGGGLVQPGGSLRLSCAASGFTFGSYAMTWVRQAPGKGLEWVSAISGSGGNTFYADSVKGRFTISRDNSKNTLYLQMNSLRAEDTAVYYCARVSPIAAEMDYWGQGTLVTVSS
VL: EIVLTQSPGTLSLSPGERATLSCRASQSVSSSYPSWYQQKPGQAPRLLIYGASSRATGIPDRFSGSGSGTDFTLTISRLEPEDFAVYYCQHYPYPPSFTFGQGTKVEIK
notes: IgG
B3: L1.GDF/L3.KW/H3.AQ (antibody, V domains shown)
VH: EVQLLESGGGLVQPGGSLRLSCAASGFTFGSYAMTWVRQAPGKGLEWVSAISGSGGNTFYADSVKGRFTISRDNSKNTLYLQMNSLRAEDTAVYYCARVSPIAAQMDYWGQGTLVTVSS
VL: EIVLTQSPGTLSLSPGERATLSCRASQSVGDFYLAWYQQKPGQAPRLLIYGASSRATGIPDRFSGSGSGTDFTLTISRLEPEDFAVYYCKHYGWPPSFTFGQGTKVEIK
notes: IgG
B4: L3.PY/L1.PS/H2.YQ (antibody, V domains shown)
VH: EVQLLESGGGLVQPGGSLRLSCAASGFTFGSYAMTWVRQAPGKGLEWVSAISYQGGNTFYADSVKGRFTISRDNSKNTLYLQMNSLRAEDTAVYYCARVSPIASGMDYWGQGTLVTVSS
VL: EIVLTQSPGTLSLSPGERATLSCRASQSVSSSYPSWYQQKPGQAPRLLIYGASSRATGIPDRFSGSGSGTDFTLTISRLEPEDFAVYYCQHYPYPPSFTFGQGTKVEIK
notes: IgG
B5: L3.PY/L3.KY/P6E01 (antibody, V domains shown)
VH: EVQLLESGGGLVQPGGSLRLSCAASGFTFGSYAMTWVRQAPGKGLEWVSAISGSGGNTFYADSVKGRFTISRDNSKNTLYLQMNSLRAEDTAVYYCARVSPIASGMDYWGQGTLVTVSS
VL: EIVLTQSPGTLSLSPGERATLSCRASQSVSSSYLAWYQQKPGQAPRLLIYGASSRATGIPDRFSGSGSGTDFTLTISRLEPEDFAVYYCKYYPYPPSFTFGQGTKVEIK
notes: IgG
B6: P6E01/H3.AQ (antibody, V domains shown)
VH: EVQLLESGGGLVQPGGSLRLSCAASGFTFGSYAMTWVRQAPGKGLEWVSAISGSGGNTFYADSVKGRFTISRDNSKNTLYLQMNSLRAEDTAVYYCARVSPIAAQMDYWGQGTLVTVSS
VL: not shown
notes: IgG
B7: L3.PY/L1.PS/P6E01 (antibody, V domains shown)
VH: EVQLLESGGGLVQPGGSLRLSCAASGFTFGSYAMTWVRQAPGKGLEWVSAISGSGGNTFYADSVKGRFTISRDNSKNTLYLQMNSLRAEDTAVYYCARVSPIASGMDYWGQGTLVTVSS
VL: EIVLTQSPGTLSLSPGERATLSCRASQSVSSSYPSWYQQKPGQAPRLLIYGASSRATGIPDRFSGSGSGTDFTLTISRLEPEDFAVYYCQHYPYPPSFTFGQGTKVEIK
notes: IgG

Columns and labels:
Human BCMA [1] = target: T1, Human BCMA; assay: SPR, IgG immobilised, 25 C
Method: (§1) All experiments were performed on a Bio-Rad Proteon XPR36 surface Plasmon resonance biosensor (Bio-Rad, Hercules, Calif.). […] The analysis temperature for the immobilization was 25° C. and the running buffer was HBS-T+(10 mM HEPES, 150 mM NaCl, 0.05% Tween-20, pH 7.4). Channels were activated in the analyte (horizontal) direction by injecting a mixture of 1 mM ECD and 0.25 mM NHS for 3 minutes at a flow rate of 30 μL/min. IgGs were immobilized on the activated spots by injecting them in the ligand (vertical) direction at 20 μg/mL in 10 mM Acetate pH 4.5 buffer for 1.5 minutes at […]. The activated surfaces were blocked by injecting 1M ethanolamine, pH 8.5 in the analyte direction for 3 minutes at 30 μL/min.
(§2) The analysis temperature for the BCMA binding analysis was 37° C. or 25° C. in a running buffer of HBS-T+, supplemented with 1 mg/mL BSA. A kinetic titration method was employed for the interaction analysis as described in Abdiche, et al. Human BCMA (huBCMA) or cynomolgus monkey BCMA (cyBCMA) analyte was injected in the analyte direction using a series of injections from low to high concentration. The concentrations used were 0.08 nM, 0.4 nM, 2 nM, 10 nM and 50 nM (a 5-membered series, with a 5-fold dilution factor and top concentration of 50 nM). The association time for a given analyte dilution was two minutes. Immediately after the 50 nM BCMA injection, dissociation was monitored for 2 hours.
(§3) The sensorgrams were double-referenced and fit to a 1:1 Langmuir with mass transport kinetic titration model in BIAevaluation Software version 4.1.1 (GE Lifesciences, Piscataway, N.J.).

cynomolgus monkey BCMA [2] = target: T2, cynomolgus monkey BCMA (cynomolgus monkey, UniProt A0A2K5UD97 1-53); assay: SPR, IgG immobilised, 25 C
T2 construct: Soluble analyte in SPR; construct not described; also called cyBCMA; Cyno BCMA
T2 sequence (A0A2K5UD97 entry or part of it): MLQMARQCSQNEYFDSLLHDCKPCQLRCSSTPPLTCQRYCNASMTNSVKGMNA
Method: as §1, §2, §3

Human BCMA [3] = target: T1, Human BCMA; assay: SPR, IgG immobilised, 37 C
Outline: (§4)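 IgGs were amine-coupled (EDC/NHS, 20 μg/mL in acetate pH 4.5) and BCMA, human or cynomolgus, was injected by kinetic titration at 0.08, 0.4, 2, 10 and 50 nM, 2 min each, in HBS-T+ pH 7.4 with 1 mg/mL BSA at 37° C or 25° C. Dissociation was followed for 2 hours.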

cynomolgus monkey BCMA [4] = target: T2, cynomolgus monkey BCMA; assay: SPR, IgG immobilised, 37 C
Outline: as §4

| Binder | Kd (Human BCMA [1]) [nM] | T ½ (Human BCMA [1]) [min] | koff (Human BCMA [1]) [s⁻¹] | kon (Human BCMA [1]) [M⁻¹ s⁻¹] | Kd (cynomolgus monkey BCMA [2]) [nM] | T ½ (cynomolgus monkey BCMA [2]) [min] | koff (cynomolgus monkey BCMA [2]) [s⁻¹] | kon (cynomolgus monkey BCMA [2]) [M⁻¹ s⁻¹] | Kd (Human BCMA [3]) [nM] | T ½ (Human BCMA [3]) [min] | koff (Human BCMA [3]) [s⁻¹] | kon (Human BCMA [3]) [M⁻¹ s⁻¹] | Kd (cynomolgus monkey BCMA [4]) [nM] | T ½ (cynomolgus monkey BCMA [4]) [min] | koff (cynomolgus monkey BCMA [4]) [s⁻¹] | kon (cynomolgus monkey BCMA [4]) [M⁻¹ s⁻¹] |
| --- | --- | --- | --- | --- | --- | --- | --- | --- | --- | --- | --- | --- | --- | --- | --- | --- |
| B1 | 8.76 | 2.96 | 0.0039 | 445000 | 56.7 | 0.6 | 0.018 | 318000 | – | – | – | – | – | – | – | – |
| B2 | – | – | – | – | – | – | – | – | 0.46 | 7.93 | 0.00146 | 3.14e+06 | 1.68 | 2.8 | 0.00413 | 2.46e+06 |
| B3 | 4.37 | 3.32 | 0.00348 | 797000 | 7 | 2 | 0.00565 | 802000 | – | – | – | – | – | – | – | – |
| B4 | – | – | – | – | – | – | – | – | 1.28 | 2.69 | 0.0043 | 3.35e+06 | 1.87 | 3.09 | 0.00374 | 2e+06 |
| B5 | – | – | – | – | – | – | – | – | 0.34 | 10.7 | 0.00109 | 3.18e+06 | 2.21 | 2.3 | 0.00502 | 2.27e+06 |
| B6 | 0.41 | 33.5 | – | – | – | – | – | – | – | – | – | – | – | – | – | – |
| B7 | – | – | – | – | – | – | – | – | 0.45 | 10.2 | 0.00113 | 2.49e+06 | 2.79 | 1.91 | 0.00606 | 2.17e+06 |
